Assay results: patent publication US20160375113A1, “COMPOSITIONS COMPRISING ENO1 AND THEIR USE IN METHODS OF TREATING OBESITY OR OVERWEIGHT AND REDUCING WEIGHT GAIN” (Berg LLC, priority 2015, published 2016)
“Also recorded” adds a separate entry of the source.

How the values were obtained:
[1] = Storage stability by ENO1 Human Activity Assay Kit (PK/LDH, NADH consumption); assay type: physicochemical; conditions: 500 ng Eno1; for activity at end of study (Week 10), −20° C.: kept at −20° C.; for activity retained at end of study (Week 10), −80° C.: kept at −80° C.; for Eno1 activity after storage, week 3, 4° C., 22° C., and 37° C.: stored at 4° C.; for Eno1 activity after storage, week 3, 4° C., 22° C., and 37° C. / Eno1 activity after storage, week 3, −80° C. and −20° C.: by week 3; for Eno1 activity after storage, week 3, −80° C. and −20° C.: stored at −80° C. and −20° C.; for Eno1 activity after storage, first week: stored at −80° C., −20° C., 4° C.; for Eno1 activity after storage, week 3, 4° C., 22° C., and 37° C. / Eno1 activity after storage, first week: 22° C., and 37° C.
Method: The stability of the Eno1-dendrimer-SMTP complex was evaluated at different temperatures, and stability was determined over a 3-4 month time period by measuring Eno1 activity using a commercially available Eno1 assay. The selected conjugates were also evaluated using biophysical techniques, including Dynamic Light Scattering (DLS) and UV-Vis spectroscopy to confirm complexation between the dendrimer-peptide conjugate and Eno1.
The stability of the Enolase-I/G5-dendrimer/SMTP conjugates was measured by using the ENO1 Human Activity Assay Kit (ABCAM, Cambridge, Mass.; Catalogue No. ab117994). Briefly, the sample was added to a microplate containing a monoclonal mouse antibody specific to Eno1. The microplate was incubated at room temperature for 2 hours, and Eno1 was immunocaptured within the wells of the microplate. The wells of the microplate were washed to remove all other enzymes. Eno1 activity was determined by following the consumption of NADH in an assay buffer that included pyruvate kinase (PK), lactate dehydrogenase (LDH) and the required substrates 2-phospho-D-glycerate (2PG) and NADH. Eno1 converts 2PG to phosphoenolpyruvate, which is converted to pyruvate by PK. Pyruvate is converted to lactate by LDH, and this reaction requires NADH. The consumption of NADH was monitored as decrease of absorbance at 340 nm.
The activity of Enolase-I/G5-dendrimer/SMTP conjugates that were stored at different temperatures at different time points was measured using the assay described above. A concentration of 500 ng of Eno1 was selected for testing because this concentration falls in the middle of the dynamic range of the assay kit. Two different sets of solutions were prepared. One set (control) contained Eno1 alone (i.e. unconjugated Eno1) and the other set contained Eno1/G5-dendrimer/SMTP mixtures. These mixtures were then kept at −80° C., −20° C., 4° C., 22° C., and 37° C. […] At the end of the study (Week 10), The Eno1/G5-dendrimer/SMTP solution that was kept at −80° C. retained about 90% of its activity whereas Eno1 alone was only 35% active. On the other hand, Eno1/G5-dendrimer/SMTP solution that was kept at −20° C. was about 24% active, whereas Eno1 alone stored at −20° C. was not active.

[2] = Tissue distribution of detectably labeled Eno1 PAMAM dendrimer complexes in mice (LI-COR imaging); assay type: in vivo
Method: A detectably labeled PAMAM dendrimer complex containing Eno1 was prepared using the method provided in the prior example and analyzed for tissue distribution in mice after subcutaneous injection. Specifically, for 72 hours prior to injection mice were fed alfalfa free food to limit background fluorescence. Mice were injected with 3 μg ENO1/mouse subcutaneously 150 μl total (75 μl left laterally, 75 μl right laterally). The molar ratio of dendrimer to Eno1 in the complex was 5:1. One, 4, and 24 hours post injection animals were sacrificed, skinned, and organs removed in preparation for LI-COR imaging.
A follow-up study was performed using the skeletal muscle targeted Eno1-PAMAM dendrimer complex containing the SMTP “ASSLNIA”. A detectably labeled PAMAM dendrimer complex containing Eno1 and SMTP ((Enolase-Vivo Tag680xl)-(G5-SMTP)) was prepared using the method provided in the prior example. The molar ratio of dendrimer to SMTP in the complex was 1:1. The experiments were performed essentially as described above. The skeletal muscle targeted Eno1-PAMAM dendrimer complex was administered at a dose of 50 μg/kg body weight. These images in FIG. 6B were taken after 1 hr of injection. Organs, other than the heart, were retained in the body.

db/db mice = assay: Body weight / weight gain in db/db mice treated with rosiglitazone and muscle targeted Eno1/dendrimer complex; assay type: in vivo; conditions: Eno1 400 μg/kg/day subcutaneous added to rosiglitazone 20 mg/kg/day
Method: A muscle targeted Eno1/dendrimer complex was generated to analyze its efficacy in reducing weight gain. The dendrimer complex comprised human Eno1, transcript variant 1 protein (SEQ ID NO: 2) which was non-covalently linked to a G5-PAMAM dendrimer/muscle targeting peptide (MTP) (ASSLNIA; SEQ ID NO: 7) conjugate. Stock solutions of Eno1 were prepared in buffer and the protein solution was mixed with the G5 dendrimer-MTP conjugate.
Lean mice and male obese and diabetic db/db mice (male BKS.Cg-m+/+Lepr^db/J) mice were obtained from a commercial vendor. All mice were housed 2-3 per cage at 22° C. on a 12:12 hr day-night cycle and were acclimated for 3 weeks at animal facility on a standard chow diet. At 8 weeks of age, 200 μg/kg body weight Eno1 was administered twice daily (at 9:00 a.m. and 5:00 p.m., 400 μg/kg daily dose) by subcutaneous injection, and 20 mg/kg body weight rosiglitazone was administered once daily by gavage at 9:00 a.m. Lean mice and db/db mice also received subcutaneous injections of saline as a control. The treatment groups were as follows: • 1. lean mice with saline injection (control) • 2. db/db mice with saline injection (control) • 3. db/db mice with rosiglitazone (20 mg/kg, once daily) • 4. db/db mice with rosiglitazone (20 mg/kg, once daily)+Eno1 (200 μg/kg, twice daily) […]

Substance | activity at end of study (Week 10), −20° C. [1] | activity retained at end of study (Week 10), −80° C. [1] | Eno1 activity after storage, week 3, 4° C., 22° C., and 37° C. [1] | Eno1 activity after storage, week 3, −80° C. and −20° C. [1] | Eno1 activity after storage, first week [1] | also measured
Eno1 alone: Eno1 alone (i.e. unconjugated Eno1), control in the stability study | not active | 35% | no activity | significant stability | active | 
Eno1-PAMAM dendrimer: detectably labeled PAMAM dendrimer complex containing Eno1, molar ratio of dendrimer to Eno1 5:1, no targeting peptide |  |  |  |  |  | tissue distribution, 1 hour post injection ([2]; subcutaneous, 3 μg ENO1/mouse, dendrimer to Eno1 5:1, 1 hour (FIG. 6A)): general systemic distribution; tissue distribution, 4 hours post injection ([2]; subcutaneous, 3 μg ENO1/mouse, dendrimer to Eno1 5:1, 4 hours (FIG. 6A)): significant accumulation of the Eno1-PAMAM dendrimer was observed in liver, kidney, and subcutaneous fat, as well as in the upper torso; tissue distribution, 24 hours post injection ([2]; subcutaneous, 3 μg ENO1/mouse, dendrimer to Eno1 5:1, 24 hours (FIG. 6A)): substantially cleared and observed substantially in the liver and kidney
Eno1/G5-dendrimer/SMTP: Eno1 complexed with Generation 5 PAMAM dendrimers decorated with Skeletal Muscle Targeting Peptides (SMTPs) | about 24% | about 90% | no activity | significant stability | active; also recorded: slightly higher activity than Eno1 alone | 
Eno1: In Example 1: human Eno1 transcript variant 1 protein (SEQ ID NO: 2) non-covalently linked to G5-PAMAM dendrimer/muscle targeting peptide (ASSLNIA) conjugate |  |  |  |  |  | effect on rosiglitazone-induced weight gain (db/db mice): attenuates rosiglitazone-induced weight gain; also recorded: attenuates rosiglitazone induced weight gain; also recorded: attenuated
muscle-targeted Eno1 dendrimer complex: detectably labeled PAMAM dendrimer complex containing Eno1 and SMTP ASSLNIA, dendrimer to SMTP 1:1 |  |  |  |  |  | tissue distribution of muscle targeted complex, 1 hr after injection ([2]; 50 μg/kg body weight, dendrimer to SMTP 1:1, 1 hr (FIG. 6B)): targeted to skeletal muscle, not heart
